According to PMC4917298 (Nature immunology, 2016):

Target: S6K1(WT)-HA (mouse, UniProt Q8BSK8-2 1-502)
Experiment: co-IP

S6K1(WT)-HA, sequence (Q8BSK8 24-525): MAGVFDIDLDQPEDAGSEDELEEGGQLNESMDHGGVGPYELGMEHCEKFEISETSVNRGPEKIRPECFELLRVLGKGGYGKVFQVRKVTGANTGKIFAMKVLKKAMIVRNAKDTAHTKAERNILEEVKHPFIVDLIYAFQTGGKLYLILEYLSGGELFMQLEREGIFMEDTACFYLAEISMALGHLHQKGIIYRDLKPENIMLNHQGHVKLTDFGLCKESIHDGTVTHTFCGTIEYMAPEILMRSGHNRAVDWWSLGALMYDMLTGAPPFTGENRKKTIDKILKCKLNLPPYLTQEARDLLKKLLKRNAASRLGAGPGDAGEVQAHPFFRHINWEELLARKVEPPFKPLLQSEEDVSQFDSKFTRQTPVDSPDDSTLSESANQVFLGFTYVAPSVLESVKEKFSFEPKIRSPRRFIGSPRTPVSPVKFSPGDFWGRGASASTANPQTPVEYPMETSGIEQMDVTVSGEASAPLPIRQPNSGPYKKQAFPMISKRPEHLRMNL

B1: phosphorylated STING-Flag (phosphorylated by TBK1) (natural protein, mouse, UniProt Q3TBT3 1-378, looked up)
chain: MPYSNLHPAIPRPRGHRSKYVALIFLVASLMILWVAKDPPNHTLKYLALHLASHELGLLLKNLCCLAEELCHVQSRYQGSYWKAVRACLGCPIHCMAMILLSSYFYFLQNTADIYLSWMFGLLVLYKSLSMLLGLQSLTPAEVSAVCEEKKLNVAHGLAWSYYIGYLRLILPGLQARIRMFNQLHNNMLSGAGSRRLYILFPLDCGVPDNLSVVDPNIRFRDMLPQQNIDRAGIKNRVYSNSVYEILENGQPAGVCILEYATPLQTLFAMSQDAKAGFSREDRLEQAKLFCRTLEEILEDVPESRNNCRLIVYQEPTDGNSFSLSQEVLRHIRQEEKEEVTMNAPMTSVAPPPSVLSQEPRLLISGMDQPLPLRTDLI
modifications: phosphorylated by TBK1 (slower mobility, removed by calf intestine phosphatase); sites not stated
  binding result: binds
